From patent US20220332804A1 (CSL INNOVATION, published 2022)

Legend:
human complement C2 = target: T1, human complement C2 (human, UniProt P06681 21-752); experiment: SPR, mAb captured, C2 analyte
T1 construct: Recombinant full-length human C2 with C-terminal 8x His tag, purified from Expi293F supernatant; also called human C2; huC2
T1 sequence: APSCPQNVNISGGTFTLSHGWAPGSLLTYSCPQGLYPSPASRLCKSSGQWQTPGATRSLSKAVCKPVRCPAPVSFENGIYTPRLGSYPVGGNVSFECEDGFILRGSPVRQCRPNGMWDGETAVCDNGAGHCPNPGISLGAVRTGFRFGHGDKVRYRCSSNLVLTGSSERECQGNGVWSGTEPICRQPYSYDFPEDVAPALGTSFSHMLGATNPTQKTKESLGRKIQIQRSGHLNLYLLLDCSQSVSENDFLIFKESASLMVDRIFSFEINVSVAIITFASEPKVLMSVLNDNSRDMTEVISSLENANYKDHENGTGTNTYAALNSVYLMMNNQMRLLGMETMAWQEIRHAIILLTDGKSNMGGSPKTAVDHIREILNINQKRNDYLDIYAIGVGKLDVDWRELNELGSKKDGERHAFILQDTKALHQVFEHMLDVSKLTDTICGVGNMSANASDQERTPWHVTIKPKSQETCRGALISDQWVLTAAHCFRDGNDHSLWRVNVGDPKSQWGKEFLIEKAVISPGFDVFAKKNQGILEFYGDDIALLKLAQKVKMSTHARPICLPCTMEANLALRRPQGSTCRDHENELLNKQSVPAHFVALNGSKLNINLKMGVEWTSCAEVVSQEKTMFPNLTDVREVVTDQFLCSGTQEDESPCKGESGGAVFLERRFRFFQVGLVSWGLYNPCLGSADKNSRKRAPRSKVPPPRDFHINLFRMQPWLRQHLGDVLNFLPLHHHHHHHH

human C2 D269A = target: T2, human C2 D269A (human, UniProt P06681 21-752); experiment: SPR; KD relative to WT C2;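 note: biacore SPR at 37 °C, anti-C2 mAbs captured on an anti-human IgG chip, alanine or serine C2 surface mutants tested, KD from 1:1 fit compared with wild-type C2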
T2 sequence: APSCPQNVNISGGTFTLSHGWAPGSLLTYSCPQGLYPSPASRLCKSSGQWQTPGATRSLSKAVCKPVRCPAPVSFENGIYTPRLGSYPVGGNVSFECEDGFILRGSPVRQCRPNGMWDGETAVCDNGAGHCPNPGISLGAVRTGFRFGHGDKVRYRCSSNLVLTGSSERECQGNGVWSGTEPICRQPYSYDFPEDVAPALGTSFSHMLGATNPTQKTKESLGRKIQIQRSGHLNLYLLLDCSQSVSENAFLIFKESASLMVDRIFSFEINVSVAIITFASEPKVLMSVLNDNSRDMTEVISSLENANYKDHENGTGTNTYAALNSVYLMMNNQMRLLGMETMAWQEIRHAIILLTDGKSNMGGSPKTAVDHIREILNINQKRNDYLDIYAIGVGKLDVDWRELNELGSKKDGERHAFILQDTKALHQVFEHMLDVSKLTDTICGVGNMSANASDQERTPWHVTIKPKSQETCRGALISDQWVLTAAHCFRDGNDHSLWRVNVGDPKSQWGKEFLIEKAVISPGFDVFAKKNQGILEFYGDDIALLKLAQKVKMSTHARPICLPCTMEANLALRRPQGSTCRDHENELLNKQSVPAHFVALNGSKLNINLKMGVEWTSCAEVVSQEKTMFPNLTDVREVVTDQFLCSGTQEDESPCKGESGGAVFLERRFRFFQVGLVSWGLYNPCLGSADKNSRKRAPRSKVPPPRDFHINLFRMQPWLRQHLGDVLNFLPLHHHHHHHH

human C2 D417A = target: T3, human C2 D417A (human, UniProt P06681 21-752); experiment: SPR; KD relative to WT C2;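 note: biacore SPR at 37 °C, anti-C2 mAbs captured on an anti-human IgG chip, alanine or serine C2 surface mutants tested, KD from 1:1 fit compared with wild-type C2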
T3 sequence: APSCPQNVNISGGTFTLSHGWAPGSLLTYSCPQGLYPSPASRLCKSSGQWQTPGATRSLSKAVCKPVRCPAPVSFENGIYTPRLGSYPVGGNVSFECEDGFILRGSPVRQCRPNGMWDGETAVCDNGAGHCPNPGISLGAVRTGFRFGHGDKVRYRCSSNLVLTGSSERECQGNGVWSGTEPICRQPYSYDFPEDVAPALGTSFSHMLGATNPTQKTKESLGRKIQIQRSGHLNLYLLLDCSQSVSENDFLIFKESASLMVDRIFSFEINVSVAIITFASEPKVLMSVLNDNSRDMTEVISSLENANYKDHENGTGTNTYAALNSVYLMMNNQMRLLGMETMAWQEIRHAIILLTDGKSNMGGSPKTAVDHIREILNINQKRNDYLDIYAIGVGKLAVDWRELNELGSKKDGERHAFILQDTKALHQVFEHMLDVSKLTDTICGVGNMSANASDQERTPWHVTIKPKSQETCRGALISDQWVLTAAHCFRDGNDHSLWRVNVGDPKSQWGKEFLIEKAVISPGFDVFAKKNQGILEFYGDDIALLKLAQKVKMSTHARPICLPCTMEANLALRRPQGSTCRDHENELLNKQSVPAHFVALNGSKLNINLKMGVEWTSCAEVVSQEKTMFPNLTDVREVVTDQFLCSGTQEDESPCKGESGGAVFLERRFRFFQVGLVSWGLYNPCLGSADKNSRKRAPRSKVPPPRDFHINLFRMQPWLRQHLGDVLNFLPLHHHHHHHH

human C2 K329A = target: T4, human C2 K329A (human, UniProt P06681 21-752); experiment: SPR; KD relative to WT C2;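 note: biacore SPR at 37 °C, anti-C2 mAbs captured on an anti-human IgG chip, alanine or serine C2 surface mutants tested, KD from 1:1 fit compared with wild-type C2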
T4 sequence: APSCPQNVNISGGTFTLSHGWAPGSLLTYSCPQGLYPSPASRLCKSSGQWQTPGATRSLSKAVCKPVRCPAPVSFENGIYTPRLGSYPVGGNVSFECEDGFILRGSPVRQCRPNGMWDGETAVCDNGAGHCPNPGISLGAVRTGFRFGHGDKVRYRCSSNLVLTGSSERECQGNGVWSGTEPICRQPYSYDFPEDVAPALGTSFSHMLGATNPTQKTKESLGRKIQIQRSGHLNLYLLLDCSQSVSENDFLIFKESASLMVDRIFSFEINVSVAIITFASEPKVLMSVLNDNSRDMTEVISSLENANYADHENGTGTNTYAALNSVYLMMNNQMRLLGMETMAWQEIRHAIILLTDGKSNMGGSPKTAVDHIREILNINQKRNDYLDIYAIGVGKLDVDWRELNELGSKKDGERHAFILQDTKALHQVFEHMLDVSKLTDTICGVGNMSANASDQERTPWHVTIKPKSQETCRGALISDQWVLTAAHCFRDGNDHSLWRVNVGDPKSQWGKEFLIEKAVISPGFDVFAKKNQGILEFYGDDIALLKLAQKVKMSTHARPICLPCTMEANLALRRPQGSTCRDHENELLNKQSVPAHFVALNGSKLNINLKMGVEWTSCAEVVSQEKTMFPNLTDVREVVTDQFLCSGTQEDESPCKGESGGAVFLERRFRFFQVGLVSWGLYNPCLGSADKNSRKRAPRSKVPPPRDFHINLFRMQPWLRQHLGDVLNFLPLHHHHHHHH

B1: RF16-214 (antibody, V domains shown)
VH: EVQLLESGGGLVQPGGSLRLSCAASGFTFSWYQMMWVRQAPGKGLEWVSRIYPSGGGTAYADSVKGRFTISRDNSKNTLYLQMNSLRAEDTAVYYCARDAGYGDNWGQGTLVTVSS
VL: QSALTQPPSVSVSPGQTASITCSGDKLGEKYASWYQQKAGQSPVMVIYQDRKRPSGIPERFSGSNSGNTATLTISGTQAMDEADYYCQAWDTRAVVFGGGTKLTVLG
Kd (human complement C2): 31 nM
Fold diff (human C2 D269A): 1 fold
Fold diff (human C2 D417A): 2 fold
Fold diff (human C2 K329A): 2 fold
